Experimental data taken from article PMC6274923, “Pinpointed Stimulation of EphA2 Receptors via DNA-Templated Oligovalence” (International Journal of Molecular Sciences, 2018).
Values belong to the molecule of their own block, whether it stands above or below them.

Target: T1, EphA2 receptor (Homo sapiens, UniProt P29317)
T1 construct: PC-3 prostate cancer cells that overexpress the EphA2 receptor; endogenous in cells; host or cells: PC-3 cells (ATCC CRL-1435)
Test: EphA2 phosphorylation assay (sandwich ELISA, DuoSet IC Human Phospho-EphA2 kit) in PC-3 cells
Assay type: cell-based

[1] = serum-starved PC-3 cells, 30 min at 37 °C, duplicates, sandwich ELISA, approximate EC50 from least-square fit (Equation 1), mean ± standard deviation, concentration of whole entity (DNA construct or peptide)

T1 sequence (P29317 24-976): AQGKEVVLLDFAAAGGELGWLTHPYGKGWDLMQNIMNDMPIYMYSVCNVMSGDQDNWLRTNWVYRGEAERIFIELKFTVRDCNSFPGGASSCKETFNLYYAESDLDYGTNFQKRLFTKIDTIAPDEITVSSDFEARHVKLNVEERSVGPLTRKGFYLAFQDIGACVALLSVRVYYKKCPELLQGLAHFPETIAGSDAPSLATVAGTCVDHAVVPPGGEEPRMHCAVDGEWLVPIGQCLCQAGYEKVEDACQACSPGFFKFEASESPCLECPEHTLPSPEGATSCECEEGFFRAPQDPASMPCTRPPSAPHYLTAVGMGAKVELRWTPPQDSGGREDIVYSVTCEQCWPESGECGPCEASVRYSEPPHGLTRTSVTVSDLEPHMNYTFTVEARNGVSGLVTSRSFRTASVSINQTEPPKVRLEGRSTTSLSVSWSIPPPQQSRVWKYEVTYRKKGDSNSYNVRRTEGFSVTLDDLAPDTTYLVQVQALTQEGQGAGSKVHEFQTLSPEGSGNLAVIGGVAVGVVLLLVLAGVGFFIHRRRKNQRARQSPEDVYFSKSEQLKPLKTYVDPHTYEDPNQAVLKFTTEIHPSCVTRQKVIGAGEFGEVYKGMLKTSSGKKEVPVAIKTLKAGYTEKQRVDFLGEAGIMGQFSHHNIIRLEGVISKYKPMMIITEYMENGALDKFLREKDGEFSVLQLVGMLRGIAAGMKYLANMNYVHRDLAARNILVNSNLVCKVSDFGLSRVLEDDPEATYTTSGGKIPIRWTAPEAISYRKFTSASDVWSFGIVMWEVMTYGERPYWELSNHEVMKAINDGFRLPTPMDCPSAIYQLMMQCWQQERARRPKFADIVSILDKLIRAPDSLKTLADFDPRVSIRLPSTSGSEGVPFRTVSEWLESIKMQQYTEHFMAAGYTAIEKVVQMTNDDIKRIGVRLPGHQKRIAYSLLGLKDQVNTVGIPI
Description: Serum-starved PC-3 cells were treated with different SWL-DNA trimer constructs (9 µM), monomeric SWL peptide (150 µM) and the natural ligand ephrin-A1 (1.5 µg/mL) in duplicates for 30 min at 37 °C. Cells were washed with 1× PBS twice and further treated according to the manufacturer’s instructions.
Serum-starved PC-3 cells were treated with different concentrations of constructs in duplicates for 30 min at 37 °C. Cells were washed with 1× PBS twice and further treated according to the manufacturer’s instructions. […] Standard deviation is presented as error bars. The x-axis indicates concentrations of the constructs in terms of DNA for 0xSWL-DNA trimer—3xSWL-DNA trimer and the concentration of the peptide for SWL.
Levels of EphA2 phosphorylation were determined using the DuoSet IC Human Phospho-EphA2 kit (R&D systems, Minneapolis, MN, USA) which is based on a sandwich ELISA. Briefly, 2 × 10^5 PC-3 cells were seeded three days before the assay for the comparison of ligands. For the concentration series used to determine EC50 values, 1 × 10^6 PC-3 cells were seeded into 12-well culture plates one day before the assay. On the day of the experiment, cells were serum-starved for 4 h and treated with either 1xSWL-DNA trimer, 2xSWL-DNA trimer, 3xSWL-DNA trimer, natural ligand ephrin-A1, SWL peptide, DNA trimer only or 1× PBS/10 mM MgCl2 as negative control for 30 min at 37 °C. Cells were lysed using 250 µL/well lysis buffer (according to kit) and assayed as indicated by manufacturer’s instructions. Manifold washing was conducted after every step and the whole procedure was executed at room temperature. In brief, 96-well ELISA plates carrying specific human EphA2 capture antibodies were incubated with cell lysates of afore treated PC-3 cells. This was followed by the addition of anti-phospho-tyrosine-HRP antibodies which ultimately fulfil a colorimetric reaction by conversion of 3,3′,5,5′-Tetramethylbenzidine substrate solution for 25 min (ligands in Figure 4a) or 8 min (ephrin-A1 in Figure A7). This reaction was stopped by adding 2 N H2SO4 and absorbance was measured at 450 nm and at 520 nm (infinite M1000, Tecan, Switzerland); the latter was subtracted as reference value. To normalize values from concentration series, controls (only 1× PBS/10 mM MgCl2) were subtracted, too. Data was analyzed by fitting to the equation: (1) A=Amin+(Amax−Amin)/1+(x/EC50)^−b where A is the observed absorbance, Amin and Amax are minimal and maximal absorbance respectively, and b is the Hill coefficient.

- EC50 [1]: 154000 ± 115000 nM
Molecule: CC(C)C[C@H](NC(=O)[C@H](Cc1c[nH]c2ccccc12)NC(=O)[C@@H](N)CO)C(=O)N[C@@H](C)C(=O)N[C@@H](Cc1ccc(O)cc1)C(=O)N1CCC[C@H]1C(=O)NCC(=O)N[C@@H](C)C(=O)N[C@H](C(=O)N[C@@H](CO)C(=O)N[C@@H](Cc1ccc(O)cc1)C(=O)N[C@@H](CCCNC(=N)N)C(=O)NCC(=O)NCC(=O)N[C@@H](CCCCN=[N+]=[N-])C(=O)O)C(C)C [SWL, reference compound]

- EC50 for EphA2 receptor phosphorylation (ephrin-A1 dose-response (Figure A7), PC-3 cells, 30 min at 37 °C, substrate reaction 8 min): 0.0552 ± 0.0103 µg/mL
- EC50 (ephrin-A1 dose-response (Figure A7), PC-3 cells, conversion of the µg/mL value): 2.65 nM
- EC50 [1]: 2.7 ± 0.5 nM
B1: ephrin-A1: natural EphA2 protein ligand, molecular weight approx. 21 kDa (protein)
chain: DRHTVFWNSSNPKFRNEDYTIHVQLNDYVDIICPHYEDHSVADAAMEQYILYLVEHEEYQLCQPQSKDQVRWQCNRPSAKHGPEKLSEKFQRFTPFTLGKEFKEGHSYYYISKPIHQHEDRCLRLKVTVSGKITHSPQAHDNPQEKRLAADDPEVRVLHSIGHS
modifications: Limits are the mature chain without signal peptide and GPI propeptide, by convention; the approx. 21 kDa MW fits a non-Fc soluble form; Possible N-glycan at Asn
